“And” between values parts separate entries of the source, which are not always exact repeats. Identical values can stand only once.
T1: Lectin/EGF fragment from E-selectin (UniProt P16581 22-178, limits assumed)
T1 construct: domain: Lectin/EGF fragment; Soluble fragment; also called lectin/EGF fragment of E-selectin
T1 sequence (looked up): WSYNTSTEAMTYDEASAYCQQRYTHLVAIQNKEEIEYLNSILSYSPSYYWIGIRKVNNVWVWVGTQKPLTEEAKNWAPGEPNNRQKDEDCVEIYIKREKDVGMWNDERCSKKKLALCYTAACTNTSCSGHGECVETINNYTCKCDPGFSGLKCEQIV

B1: mouse ENA-2 (antibody, V domains shown)
VH: QVQLQQSGTELVRPGASVTLSCKASGYTFTDHEMHWVKQTPVLGLEWIGTIDPETGGTAYNQKFKGKATLTADKSSTTAYMDLRGLTSEDSAVFYCTVLRMDYWGQGTSLTVSA
VL: DIVMTQSPSSLTVTAGEKVTMRCKSSQSLLNSGNQQNYLTWYQQKPGQPPKLLIYWASTRESGVPDRFTGSGSGTDFTLTISSVQTEDLAVYYCQNDYDYPLTFGAGTKLEIKR
notes: Mouse IgG1/kappa whole antibody purified from hybridoma supernatant; The entries may include leader residues; also called mENA-2; murine ENA-2
B2: CDR-grafted ENA-2 (hENA-2 wt) (antibody, V domains shown)
VH: QVQLVQSGAEVKKPGSSVKVSCKASGYTFTDHEMHWVRQAPGQGLEWIGTIDPETGGTAYNQKFKGRATLTADKSTNTAYMDLSSLRSEDTAVYYCTVLRMDYWGQGTLVTVSS
VL: DIQMTQSPSTLSASVGDRVTITCKSSQSLLNSGNQQNYLTWYQQKPGKAPKLLIYWASTRESGVPDRFTGSGSGTDFTLTISSLQPDDFAVYYCQNDYDYPLTFGQGTKVEIKR
notes: CDR-grafted on human Eu frameworks, with a human kappa light chain (pENA204); Both gamma 1 (pENA212) and gamma 4 (pENA206) heavy chain vectors were made; The FcRI comparison uses the gamma 4 wild type; also called hEN2; gamma 4

Columns and labels:
[1] = biological target: T1, Lectin/EGF fragment from E-selectin; assay: BIAcore SPR, antibody immobilised, lectin/EGF fragment in fluid phase; average
Procedure: (§1) The affinity of both mouse and CDR-grafted ENA-2 for E-selectin were measured using a BIAcore TH biosensor (Pharmacia). This instrument combines miniaturised fluid delivery with an optical detection system based on surface plasmon resonance, to monitor protein interactions in real time (Chaiken et al, (1991) Anal. Biochem 201 197–210). The antibodies were immobilised at similar densities onto the sensor surface and the lectin/EGF fragment of E-selectin used as antigen in the fluid phase.
(§2) Assays of both antibodies were run at the same time using the same dilutions of antigen. The KD measurements are given below. KD Measurements

[2] = biological target: T1, Lectin/EGF fragment from E-selectin; assay: BIAcore SPR, antibody immobilised, lectin/EGF fragment in fluid phase; duplicate
Procedure: as §1, §2

Binder	Kd [1] [nM]	Kd [2]
B1	5.43	5.38 nM and 5.48 nM
B2	7.98	7.8 nM and 8.17 nM
